In patent publication US20210347913A1 (CRISPR THERAPEUTICS, published 2021):

T1: PTK7 on PTK7 positive cell line SaOS-2 (osteosarcoma) (UniProt Q13308 31-1070, limits assumed)
T1 sequence (looked up): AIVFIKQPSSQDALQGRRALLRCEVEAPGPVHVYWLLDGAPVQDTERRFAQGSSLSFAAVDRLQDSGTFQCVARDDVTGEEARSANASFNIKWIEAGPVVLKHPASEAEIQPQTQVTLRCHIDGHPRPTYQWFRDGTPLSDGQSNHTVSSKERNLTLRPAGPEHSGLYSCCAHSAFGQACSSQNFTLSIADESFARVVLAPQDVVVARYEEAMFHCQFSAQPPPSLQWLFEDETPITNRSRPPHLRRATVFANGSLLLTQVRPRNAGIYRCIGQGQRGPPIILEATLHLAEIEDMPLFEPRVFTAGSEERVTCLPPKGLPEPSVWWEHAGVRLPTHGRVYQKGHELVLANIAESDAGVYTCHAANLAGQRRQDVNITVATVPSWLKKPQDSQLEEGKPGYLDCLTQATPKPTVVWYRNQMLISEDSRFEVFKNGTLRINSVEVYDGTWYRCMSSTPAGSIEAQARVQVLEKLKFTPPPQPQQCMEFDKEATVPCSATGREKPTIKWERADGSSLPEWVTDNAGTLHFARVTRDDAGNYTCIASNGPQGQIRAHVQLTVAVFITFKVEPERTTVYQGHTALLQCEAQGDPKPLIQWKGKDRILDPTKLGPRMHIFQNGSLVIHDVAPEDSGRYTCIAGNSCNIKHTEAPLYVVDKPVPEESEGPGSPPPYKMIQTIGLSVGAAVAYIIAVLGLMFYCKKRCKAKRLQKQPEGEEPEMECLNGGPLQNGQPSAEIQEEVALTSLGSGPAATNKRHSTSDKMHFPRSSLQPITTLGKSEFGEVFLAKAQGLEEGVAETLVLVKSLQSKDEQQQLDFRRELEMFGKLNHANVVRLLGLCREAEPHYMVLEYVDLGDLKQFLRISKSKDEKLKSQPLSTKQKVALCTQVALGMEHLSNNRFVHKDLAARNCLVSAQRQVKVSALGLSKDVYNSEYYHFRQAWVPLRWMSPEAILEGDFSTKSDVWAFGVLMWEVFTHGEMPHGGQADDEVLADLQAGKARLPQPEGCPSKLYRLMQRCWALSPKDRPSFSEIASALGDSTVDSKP

T2: recombinant human PTK7.Fc (R and D Systems, catalog #9799-TK) (human, UniProt Q13308 31-704, limits assumed)
T2 construct: Bought reagent; also called soluble recombinant human PTK7.Fc; soluble antigen PTK7; not shown: Fc part of the bought fusion (detected with anti-human Fc)
T2 sequence (looked up): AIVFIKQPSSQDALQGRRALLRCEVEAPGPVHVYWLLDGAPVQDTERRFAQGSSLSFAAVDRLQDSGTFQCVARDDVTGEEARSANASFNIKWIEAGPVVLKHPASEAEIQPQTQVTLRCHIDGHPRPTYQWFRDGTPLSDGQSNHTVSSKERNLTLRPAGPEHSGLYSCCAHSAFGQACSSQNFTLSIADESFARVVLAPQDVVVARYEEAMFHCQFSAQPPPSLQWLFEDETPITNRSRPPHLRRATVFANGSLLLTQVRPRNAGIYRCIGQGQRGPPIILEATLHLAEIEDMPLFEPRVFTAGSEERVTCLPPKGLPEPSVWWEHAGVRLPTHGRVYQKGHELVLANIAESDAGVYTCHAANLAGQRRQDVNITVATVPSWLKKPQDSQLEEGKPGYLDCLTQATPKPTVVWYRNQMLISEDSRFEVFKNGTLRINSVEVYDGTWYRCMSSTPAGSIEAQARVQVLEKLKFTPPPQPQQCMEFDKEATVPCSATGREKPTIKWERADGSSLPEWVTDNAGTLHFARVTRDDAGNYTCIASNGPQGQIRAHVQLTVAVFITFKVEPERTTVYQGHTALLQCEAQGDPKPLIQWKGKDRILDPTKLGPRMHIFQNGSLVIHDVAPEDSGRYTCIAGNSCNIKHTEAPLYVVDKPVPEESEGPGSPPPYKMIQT


Experiments:
[1] = target: T1, PTK7 on PTK7 positive cell line SaOS-2 …; assay: cell-based or functional assay
[2] = target: T2, recombinant human PTK7.Fc (R and D …); assay: flow cytometry, percent of CAR T cells positive for 10 ug/mL PTK7.Fc
Method: In addition to detecting surface CAR expression, the ability of the CAR T cells and masked CAR T cells to detect target antigen was also determined. Live CAR T cells were gated by their forward scatter (FSC) and side scatter (SSC) profiles, and with DAPI dye (Invitrogen, catalog #: D3571). The cells were then stained with 10 μg/mL recombinant human PTK7.Fc (R and D Systems, catalog #9799-TK Lot DHMCO219041) as described above in Example 3, and with mouse anti-human.Fc conjugated to APC (Biolegend cat #409305) as secondary antibody for detection (FIG. 3).

[3] = target: T1, PTK7 on PTK7 positive cell line SaOS-2 …; assay: cell-based or functional assay; remark: listed apart in the source

Binder	IFNγ (pg/mL) at E:T = 1:0.5 [1]	IFNγ (pg/mL) at E:T = 1:1 [1]	% Antigen detection [2]	% Cell killing at E:T = 1:0.5 [3]	% Cell killing at E:T = 1:1 [3]
CTX181 (unmasked CAR) (other, Chimeric antigen receptor (Ab181 scFv) on the surface of TRAC-/B2M- human T cells; entry without signal peptide; also called anti-PTK7 CAR; unmasked CAR CTX181) QVQLVESGGGVVQPGRSLRLSCAASGFTFSSYGMHWVRQAPGKGLEWVAVIWDDGSNKYYVDSVKGRFTISRDNSKNTLYLQMNSLRAEDTAVYYCARDDYYGSGSFNSYYGTDVWGQGTTVTVSSGGGGSGGGGSGGGGSEIVLTQSPATLSLSPGERATLSCRASQSVSIYLAWYQQKPGQAPRLLIYDASNRATGIPARFSGSGSGTDFTLTISSLEPEDFAVYYCQQRSNWPPFTFGPGTKVDIKSAAAFVPVFLPAKPTTTPAPRPPTPAPTIASQPLSLRPEACRPAAGGAVHTRGLDFACDIYIWAPLAGTCGVLLLSLVITLYCNHRNRKRGRKKLLYIFKQPFMRPVQTTQEEDGCSCRFPEEEEGGCELRVKFSRSADAPAYQQGQNQLYNELNLGRREEYDVLDKRRGRDPEMGGKPRRKNPQEGLYNELQKDKMAEAYSEIGMKGERRRGKGHDGLYQGLSTATKDTYDALHMQALPPR	22300 pg/mL	34900 pg/mL	61.9%	97.1%	96.6%
CTX181.M5 (other, Masked chimeric antigen receptor on the surface of TRAC-/B2M- human T cells; entry without signal peptide) QGCTYPSWVAYIRFCGSSGGSGGSGGSGGGPLGLAGGSSGQVQLVESGGGVVQPGRSLRLSCAASGFTFSSYGMHWVRQAPGKGLEWVAVIWDDGSNKYYVDSVKGRFTISRDNSKNTLYLQMNSLRAEDTAVYYCARDDYYGSGSFNSYYGTDVWGQGTTVTVSSGGGGSGGGGSGGGGSEIVLTQSPATLSLSPGERATLSCRASQSVSIYLAWYQQKPGQAPRLLIYDASNRATGIPARFSGSGSGTDFTLTISSLEPEDFAVYYCQQRSNWPPFTFGPGTKVDIKSAAAFVPVFLPAKPTTTPAPRPPTPAPTIASQPLSLRPEACRPAAGGAVHTRGLDFACDIYIWAPLAGTCGVLLLSLVITLYCNHRNRSKRSRLLHSDYMNMTPRRPGPTRKHYQPYAPPRDFAAYRSRVKFSRSADAPAYQQGQNQLYNELNLGRREEYDVLDKRRGRDPEMGGKPRRKNPQEGLYNELQKDKMAEAYSEIGMKGERRRGKGHDGLYQGLSTATKDTYDALHMQALPPR	523 pg/mL	459 pg/mL	18.5%	29.6%	-0.8%
CTX181.M4 (other, Masked chimeric antigen receptor on the surface of TRAC-/B2M- human T cells; entry without signal peptide) QGCTFPNTTMQRTFCGSSGGSGGSGGSGGGPLGLAGGSSGQVQLVESGGGVVQPGRSLRLSCAASGFTFSSYGMHWVRQAPGKGLEWVAVIWDDGSNKYYVDSVKGRFTISRDNSKNTLYLQMNSLRAEDTAVYYCARDDYYGSGSFNSYYGTDVWGQGTTVTVSSGGGGSGGGGSGGGGSEIVLTQSPATLSLSPGERATLSCRASQSVSIYLAWYQQKPGQAPRLLIYDASNRATGIPARFSGSGSGTDFTLTISSLEPEDFAVYYCQQRSNWPPFTFGPGTKVDIKSAAAFVPVFLPAKPTTTPAPRPPTPAPTIASQPLSLRPEACRPAAGGAVHTRGLDFACDIYIWAPLAGTCGVLLLSLVITLYCNHRNRSKRSRLLHSDYMNMTPRRPGPTRKHYQPYAPPRDFAAYRSRVKFSRSADAPAYQQGQNQLYNELNLGRREEYDVLDKRRGRDPEMGGKPRRKNPQEGLYNELQKDKMAEAYSEIGMKGERRRGKGHDGLYQGLSTATKDTYDALHMQALPPR	9550 pg/mL	13200 pg/mL	32.6%	78.4%	54.6%

More lines, main results first:

IFNγ (pg/mL) at E:T = 1:0.5 [1]	IFNγ (pg/mL) at E:T = 1:1 [1]	% Antigen detection [2]	Binder	% Cell killing at E:T = 1:0.5 [3]	% Cell killing at E:T = 1:1 [3]
–	–	35.1%	CTX181.M9 (other, Masked chimeric antigen receptor on the surface of TRAC-/B2M- human T cells; entry without signal peptide) QGCHIGKRPVPCLWIGSSGGSGGSGGSGGGPLGLAGGSSGQVQLVESGGGVVQPGRSLRLSCAASGFTFSSYGMHWVRQAPGKGLEWVAVIWDDGSNKYYVDSVKGRFTISRDNSKNTLYLQMNSLRAEDTAVYYCARDDYYGSGSFNSYYGTDVWGQGTTVTVSSGGGGSGGGGSGGGGSEIVLTQSPATLSLSPGERATLSCRASQSVSIYLAWYQQKPGQAPRLLIYDASNRATGIPARFSGSGSGTDFTLTISSLEPEDFAVYYCQQRSNWPPFTFGPGTKVDIKSAAAFVPVFLPAKPTTTPAPRPPTPAPTIASQPLSLRPEACRPAAGGAVHTRGLDFACDIYIWAPLAGTCGVLLLSLVITLYCNHRNRSKRSRLLHSDYMNMTPRRPGPTRKHYQPYAPPRDFAAYRSRVKFSRSADAPAYQQGQNQLYNELNLGRREEYDVLDKRRGRDPEMGGKPRRKNPQEGLYNELQKDKMAEAYSEIGMKGERRRGKGHDGLYQGLSTATKDTYDALHMQALPPR	–	–
885 pg/mL	830 pg/mL	28%	CTX181.M7 (other, Masked chimeric antigen receptor on the surface of TRAC-/B2M- human T cells; entry without signal peptide) QGCTMPYHIHSIGLCGSSGGSGGSGGSGGGPLGLAGGSSGQVQLVESGGGVVQPGRSLRLSCAASGFTFSSYGMHWVRQAPGKGLEWVAVIWDDGSNKYYVDSVKGRFTISRDNSKNTLYLQMNSLRAEDTAVYYCARDDYYGSGSFNSYYGTDVWGQGTTVTVSSGGGGSGGGGSGGGGSEIVLTQSPATLSLSPGERATLSCRASQSVSIYLAWYQQKPGQAPRLLIYDASNRATGIPARFSGSGSGTDFTLTISSLEPEDFAVYYCQQRSNWPPFTFGPGTKVDIKSAAAFVPVFLPAKPTTTPAPRPPTPAPTIASQPLSLRPEACRPAAGGAVHTRGLDFACDIYIWAPLAGTCGVLLLSLVITLYCNHRNRSKRSRLLHSDYMNMTPRRPGPTRKHYQPYAPPRDFAAYRSRVKFSRSADAPAYQQGQNQLYNELNLGRREEYDVLDKRRGRDPEMGGKPRRKNPQEGLYNELQKDKMAEAYSEIGMKGERRRGKGHDGLYQGLSTATKDTYDALHMQALPPR	37.5%	10.2%
735 pg/mL	715 pg/mL	14.7%	CTX181.M6 (other, Masked chimeric antigen receptor on the surface of TRAC-/B2M- human T cells; entry without signal peptide) QGVCTYPPAHRTRFCGSSGGSGGSGGSGGGPLGLAGGSSGQVQLVESGGGVVQPGRSLRLSCAASGFTFSSYGMHWVRQAPGKGLEWVAVIWDDGSNKYYVDSVKGRFTISRDNSKNTLYLQMNSLRAEDTAVYYCARDDYYGSGSFNSYYGTDVWGQGTTVTVSSGGGGSGGGGSGGGGSEIVLTQSPATLSLSPGERATLSCRASQSVSIYLAWYQQKPGQAPRLLIYDASNRATGIPARFSGSGSGTDFTLTISSLEPEDFAVYYCQQRSNWPPFTFGPGTKVDIKSAAAFVPVFLPAKPTTTPAPRPPTPAPTIASQPLSLRPEACRPAAGGAVHTRGLDFACDIYIWAPLAGTCGVLLLSLVITLYCNHRNRSKRSRLLHSDYMNMTPRRPGPTRKHYQPYAPPRDFAAYRSRVKFSRSADAPAYQQGQNQLYNELNLGRREEYDVLDKRRGRDPEMGGKPRRKNPQEGLYNELQKDKMAEAYSEIGMKGERRRGKGHDGLYQGLSTATKDTYDALHMQALPPR	42.4%	13.9%
